# Reference: the DeepSol protein solubility set
# Test: soluble on expression in E. coli; label from the status in PepcDB or PDB records
row,Sequence,soluble on expression in E. coli
1,MSLINGSDPRYNFNVAPYPYCRLCKGHKHMCGLRVCPILERFQEVFPRLDLHGDISTSTPPSIFIGEYNYPSVYGGIMSVVDPERPYARRDMFDLGMPEIIERNANLFRNVKTVSVHNLSEKTVEQIQEAAMALNELRVESRIVGKEKHFDFFDSPVGPMYKSENIKVYGNAKTPRAAQDVIYDIDLNSTEALKILYMNSIDINYITGLLSGGLLGIEKKRKLVPTRWSITAVDDTISRYLKSDALNYESIDKPMVFSYSRFGNHFNIILLPRGTAFEMQEYWEIGSLWGSDGRVSIDFEGHHHHHH,soluble
2,MGSDKIHHHHHHVPLNSPLQLSLPVHLPDDETFNSYYPAAGNDELIQKLRANAEGQGEAAIYLWGPVKSGRTHLMHAACAHANEVERRSFYIPLGIHASISTALLEGLEQLDLVCIDDVDAIAGHPVWEEAIFDLYNRVAEHKNCALVVSGSSSPADAGFLLPDLVSRMQWGLNYQLQPMADDEKLAALQRRAAMRGLQLPEDVGRFLLNRMARDLRTLFDVLDKLDKASLVHQRKLTIPFAKEMLHL,not soluble
3,MGKSLDEQFEAAVWIINALPKNGPIKTSINDQLQMYSLYKQATSGKCDTIQPYFFQIEQRMKWNAWNQLGNMDEAEAKAQYVEKMLKLCNQAEAEHNLMEFLSDPTIADLLPKQNQLREHFATLGRTTVKGFEGETVEINGVSISF,not soluble
4,MYPSIKETMRVQLSMEGSVNYHAFKCTGKGEGKPYEGTQSLNITITEGGPLPFAFDILSHAFQYGIKVFAKYPKEIPDFFKQSLPGGFSWERVSTYEDGGVLSATQETSLQGDCIICKVKVLGTNFPANGPVMQKKTCGWEPSTETVIPRDGGLLLRDTPALMLADGGHLSCFMETTYKSKKEVKLPELHFHHLRMEKLNISDDWKTVEQHESVVASYSQVPSKLGHN,soluble
5,MELESKMGAFCGAAQSNYDDACVAFSAANKCAPIERETGVKKLADKLNPEQPHKLSVMDVKLITKASGDYTIVNSLLYSLDMVAVAVDKNGESETFVKRTLDNSIYAGELAQEALKHAGQKRMTGRSKNTIVKKAHTAIGNLVLLINDMEGRTPNASSFLSMGMDLLSSGVTVPGLA,not soluble
6,SASPSLERPEKGAGKSEFRNQKPKPENQDESELLTVPDGWKEPAFSKEDNPRGLLEESSFATLFPKYRGAYLKECWPLVQKALNEHHVNATLDLIEGSMTVCTTKKTFDPYIIIRARDLIKLLARSVSFEQAVRILQDDVACDIIKIGSLVRNKERFVKRRQRLIGPKGSTLKALELLTNCYIMVQGNTVSAIGPFSGLKEVRKVVLDTMKNIHPIYNIKSLMIKRELAKDSELRSQSWERFLPQFKHKNVNKRKEPKKKTVKKEYTPFPPPQPESQIDKELASGEYFLKANQKKRQKMEAIKAKQAEAISKRQEERNKAFIPPKEKPIVKPKEASTETKIDVASIKEKVKKAKNKKLGALTAEEIALKMEADEKKKKKKK,soluble
7,MGSDKIHHHHHHMVTFSIRIISSDRIFLVAEVKALERVYVIGHKNPDTDSVCSAIGYAHFKNNVEKGKTFIPARSGDLTNESLFVLKYFGMNPPLHIETLEPTVEDLELKNPIFVTPDTSAYDVAMLMESRGIKNVPVVSKEKMIGVVTESNIARVYVRRLKIEPLVIHPVPFDQLVRILKAEVVCDYMKEKTVSGKVHIAVDALHVLLGKIEIGDVVIVGDNEPAQIALLEKGAKLMIVVNNAPVSNRVLEIAKEKNAAVLRVKFDAFSAAKLINLSLPVTLVMSKKFPTVTKKDTLEEVKEIVFTSKIRAAFVEDEKGRLCGVITRTDLLKDVRKKVILVDHNEITQAPEGVEKAEILEIIDHHRLGGLSTLNPVFFYNEPVGSTSTIVAEFFLKNGVKMEREIAGILLSGIVSDTLFFKLSTTTEKDRKMANFLADVAKLDLEKFAKKLLKEGMKIPEDVDPAELLKRDVKVYEMGEESFAVSQIMTSDFSTLLKEKERFMNTLKTLKGEFGVKHFFVLFTNPVEEASLLMMDGDQKLVEKAFNAEKKDGLFLLKGVMSRKKDFVPKIGEVLRRER,not soluble
8,MGSDKIHHHHHHMIGHVPVGSSAPVVVQSMTNTDTADAAATVRQVYELWRAGSEIVRITVNSPEAAAQVGAIRRQLDDLGCNVPLVGDFHFNGHRLLAQYPDCAEALAKYRINPGNVGKGSKRDEQFSAMIKAAIDYNKPVRIGVNWGSLDQAKMARMMDENSKRAAPLAADALMREMLIQSALENAAAAEELGLPSDRIIISCKVSAVQDLIKVYRDLGSRCDYPLHLGLTEAGMGSKGIVASTAALSVLLQDGIGDTIRVSLTPEPGESRTKEVVVAQEILQTMGIRSFTPLVTACPGCGRTTSTFFQELAQKIQHYLRDQMPVWRSQYPGVENMSVAVMGCVVNGPGESKLANIGISLPGTGEVPVAPVYVDGEKTVTLKGERIADDFKVIVEEYVRVNYAEGGRLRQQGTGTGLKTIPLKAI,not soluble
9,MIGGGPGGLYFAYLWKKRHPEDQVDLFEQNPADATWGFGVVFSDQALEFLRADDPETVDAIAPHMESWENITLNLQGGSVAIDGVGFSSIGRLELLQFLQQRALDVGVTPRFDTQIHGIDQLNGHDLIVAADGLNSLVRRAYEGDFGTSLSYSSNKFVWYGTSKRFDTLSQTFVKTDRGAFNAHHYRYSPTMSTFLVECDHATWQAYGFAYKDVEQSKGVCEEVFADTLGGHCLVSNKSVWRNFPWVWNEHWSFKNMVLIGDALHSAHFSIGSGTRLAIEDAIALVKALESDAHLNTALLRYQAARKPVVQKLVDAARTSASWYENFAQHMQLDLMDFAYSYITRSGRIDDSRLRAMSPAFMARYEAAKNGGDAASEATALEHHHHHH,soluble
10,MSAMENESNKDTNTETKSVPEEMEASKYVGQGFQPPAEKDAIEFAKKHRKEFEKVGEQFFKDNFGLKVKATNVVGKDDGVEVYVHCEDHGIVFNASLPLYKDAIHQKGSMRSNDNGDDMSMMVGTVLSGFEYRAQKEKYDNLYKFFKENEKKYQYTGFTKEAINKTQNVGYQNEYFYITYLSRNLKEYRKYYEPLIHKNDKEFKEGMQQARKELDYTANTDAVSTLFSTKKNFTKDNTVDDVIELSNKLKEKPNMPQKSQVTIQLGKSSINTKKPFYDDINPIEGLEHHHHHH,soluble
11,MTEDERFAWLQLAFTPYIGAESFLLLMRRFGSAQNALSAPAEQVAALIRHKQALEAWRNAEKRALARQAAEAALEWEMRDGCRLMLLQDEDFPEMLTQGLTAPPVLFLRGNVQLLHKPSAAIVGSRHATPQAMRIAKDFGKSLGGKGIPVVSGMASGIDTAAHQGALQAEGGTIAVWGTGIDRIYPPVNKNLAYEIAEKGLIVSEFPIGTRPYAGNFPRRNRLIAALSQVTLVVEAALESGSLITARLAAEMGREVMAVPGSIDNPHSKGCHKLIKDGAKLVECLDDILNECPGLLQNTGASSYSINKGIPEKRITAVQTASDQLSLPEGKMPSEKTENRPVGGSILDRMGFDPVHPDVLAGQLAMPAADLYAALLELELDGSVAAMPGGRYQRIRT,not soluble
12,MAHHHHHHMSSQKESKKRKSDALDQACLELSEEVENAEEVPKKNDEVEEEDLETQFSNWKVNSGLLYDFVSRKELEWPSLSIDFGDYHNENVEDSVFNQIVCVGTHTSNKELNYLYVCEVLFPLEQLPQENCIYKTNQNYEGFDFCPDKKKFTIQSKIAHEGEVNRIKFLPLEKKNFVVTKAIDGNLHLFDINKHEIETSEDKMSPEVSFIGNSSDGFGLDFNAEKKYALTCGNDGVLNLYDYTEMDSKKVSPFYSVKYKSPLNDVCATNDPNLILSCADNGYILMYDIRVKGEEPAQQVLGQQVAVNCISLNKFTGHFASGSENGKIKIWDIKRFSEPQHIIHAHKEPIIRLNFSPNDSSILGSASTSRFINIYNLTKIGEELDAIDLSDGPSELIFSHGGHTQPITDFNWNHHKQLKMFIGSTGEDNTLQFWQLKTELLDEANTVPTSNTDVE,not soluble
13,MTRPKLELSDDEWRQKLTPQEFHVLRRAGTERPFTGEYTDTTTAGIYQCRACGAELFRSTEKFESHCGWPSFFDPKSSDAVTLRPDHSLGMTRTEVLCANCDSHLGHVFAGEGYPTPTDKRYCINSISLRLVPGSV,soluble
14,MGEETINSTQNKTRTKTTRPKAVYLWTVSDVLKWYRRHCGEYTQYEQLFAQHDITGRALLRITDSSLQRMGVTDNRDREAIWREIVKQRLKTDIMEIRDMERLNIY,soluble
15,MGSDKIHHHHHHMHYNDQGADFKYLIVNERDKRFGLSVTTVGFQAIRAGSVYPPRNHPDAYYFTAQKGRVLHEYQLVYITKGRGTFASDTTPSVDISKGQILFLFPGQWHTYAPLQKTGWNEYYIGFEGPIIDNLVKNSFISKESQILDIGINEELASLFARALEVAEADKTAAQQYLSGIVLHIMGAVLAISQNKRYEVDNAAQKIESAKIIMHENVYKDIDPEELAMKLGISYSWFRKVFKEYTGYAPAKYFQELKLRKAKQLLIESSMSVKEICYELNYTSTEHFFSVFKKRTNFTPTEYRNFGRGGKEKENENE,not soluble
16,MVDKDIHSEHWYHGLLPREDIKAMLRKNGDFLVRSTEPKAGEPRQYVLSAMQSEELEDAGVKHYVMRLNSSNQIFLEAKGFETIASLVNYYMSSKEPIKKLTVLKTPILKQPWEIEHSQVELTKKLGEGAFGEVWKGKLTLKNGNVENCAIKTAKLESLNKEQIKEIMREARLMRNLDHPNVVKFYGVGASQEPLYVIMELADCGALDSYLQKNPNLVPDKKMEMIYQAACGISYMHEKKLLHRDIAARNCLYGGGQVKIADFGLSREGISYVMDLTKKVPIRWLAPETLKAGIYSPKTDVFAFGIMAWEITENGKEPYPDMRVADVVGKVRNGYRMRFDPVFVDFRFGDYVTKHCWAENPADRVSMADVLRYLQTTFGMKPVVLSILSSNRSTEEEMKTMKPPMFSVKRNNKKKPK,not soluble
17,MHGLKRSLMIRTVCRGKATTAGADLPQSSQEIEVTTPKSENVPAKSANASTVYRPPYYRKPHQHHEPKHMLQEEFVNAGDASGAGVRVFDYYKTAEMVHSMPTIKEKIDFVSPYERPWTRAEKTWRRDWHPTLMATRKAWGIPPTPAHFDTLDYYKYLTKTRVENESLDDFYHGLRPPTADLQTSFQNTLKSMEFGDGINFSDEDTQKLFGSLIDDAMGGIAHNVSRLADHRVAYDVESEAFWVRSGFMFLYDEEEIGTRDVKRRLNNFPKFIGDDRRKLGELAFVHRDKLAAQVRSKEPSAPLHSFDSEDAKLPIFDTNYNFEETLFSPKVYNLWPDQEPLWQCPGYHADSGESHTYGILGVKSLRPLRKRIAHWMGWENENELESSEEAKQMLDDGARSQAIISMFTTLCAQAHTHGFTQYTDITRSFTSQLVLSDGINFWFAIGQLNTIAINVECDGFVNPRTNYIRIDGPYRLFDYCDKNGQYLSVQEEIDAENKVQRKIAPGLNEKVLERVTQMLMKQ,not soluble
18,MAHHHHHHMGGVRGGRNKSHKLPVKFMAAAKQELVNSRLTLQEELLHSAFDDHSAYRMRITGLKQQNLDLSFTVSELEEQVRDLYTYIHEKRFARQVDEQGNEIAVMTPRPRGVPLALQTELGIDLRHSTANILSELSTLSINMKHQLNSALLRARQLHTLSAWLDEGNETSVSGGGVGGMLERVSEAAAIPVFPVSAWPSIPHFLRTFIAPDVPNYFWTETQAACILYNFFKRYKAIRRRARFVRDNKMLAPRVYQLFEHREVLLTRLDAGKEDVAAAEENTPFGYVVTQFAREVLANLSPQNTQPHLPLVLPGTVALRFPQTSSTPSQSKSLQSGERRG,not soluble
